Laboratory results as given in paper PMC9320952 (Molecular Microbiology, 2022).

Target: the molecule itself
Test: negative staining electron microscopy

B1: SepF (purified, freed from MBP-SepF by factor Xa) (natural protein, B. subtilis, UniProt O31728 1-151, looked up)
chain: MSMKNKLKNFFSMEDEEYEYEYIETERESHEEHEQKEKPAYNGNKPAGKQNVVSLQSVQKSSKVVLSEPRVYAEAQEIADHLKNRRAVVVNLQRIQHDQAKRIVDFLSGTVYAIGGDIQRIGSDIFLCTPDNVDVSGTISELISEDEHQRW
- binding result: binds
